Source: patent publication US20220089710A1, “Method of Treating Signs and Symptoms of Osteoarthritis” (Pfizer Inc., priority 2019, published 2022)

Key:
[1] = tested on: patients with osteoarthritis (OA) of the knee or hip; assay: Example 3: treatment-emergent adverse events and deaths, Safety Population;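 further: seven SC injections given 8 weeks apart plus twice-daily oral study medication up to Week 56, Safety Population of all patients dosed at least once SC, analyzed by treatment actually received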
Experimental: Patients received a total of seven SC injections, each separated by 8 weeks and daily oral (PO) study medication BID through Week 56.
The Intent-to-Treat (ITT) Population included all patients who were randomized and received at least one dose of SC study drug. This analysis set was primary for all efficacy endpoints, which were analyzed according to randomization assignment. The Safety Population included all patients who received at least one dose of SC study treatment. This analysis set was primary for all safety endpoints, which were analyzed according to treatment received.

[2] = target: NGF (Homo sapiens, UniProt P01138); settings: cell culture models; cited from earlier work
Chain of NGF (P01138 122-241): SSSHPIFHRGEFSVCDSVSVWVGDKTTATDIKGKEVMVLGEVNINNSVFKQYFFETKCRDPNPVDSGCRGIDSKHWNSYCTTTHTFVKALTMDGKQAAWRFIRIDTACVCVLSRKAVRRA

tanezumab: humanized immunoglobulin G Type 2 (IgG2) monoclonal antibody directed against human nerve growth factor (NGF); SEQ ID NOs: 9 or 11 and 10
Serious AE Osteoarthritis: % ([1]; 2.5 mg SC, treatment period): 0.9% | Serious AE Osteoarthritis: n ([1]; 2.5 mg SC, treatment period): 9 | Serious AE Osteonecrosis: n ([1]; 2.5 mg SC, treatment period): 0 | Serious AE Pneumonia: % ([1]; 2.5 mg SC, treatment period): 0.1% | Serious AE Pneumonia: n ([1]; 2.5 mg SC, treatment period): 1 | Serious AE RPOA: % ([1]; 2.5 mg SC, treatment period): 0.3% | Serious AE RPOA: n ([1]; 2.5 mg SC, treatment period): 3 | Serious AE Subchondral insufficiency fracture: % ([1]; 2.5 mg SC, treatment period): 0.1% | Serious AE Subchondral insufficiency fracture: n ([1]; 2.5 mg SC, treatment period): 1 | Serious Adverse Event (any event): % of patients ([1]; 2.5 mg SC, treatment period): 5.1% | Serious Adverse Event (any event): number of patients ([1]; 2.5 mg SC, treatment period): 51 | Severe Adverse Event: % of patients ([1]; 2.5 mg SC, treatment period): 4.5% | Severe Adverse Event: number of patients ([1]; 2.5 mg SC, treatment period): 45 | Upper respiratory tract infection: number of patients ([1]; 2.5 mg SC, treatment period): 57 | deaths: patients ([1]; 5 mg SC, after patient discontinuation from the study): 1 | deaths: patients ([1]; 5 mg SC, during the safety follow-up period): 1 | deaths: patients ([1]; 5 mg SC, during the treatment period): 3 | Adverse Event: % of patients ([1]; 5 mg SC, treatment period): 67.1% | Adverse Event: number of patients ([1]; 5 mg SC, treatment period): 670 | Arthralgia: % of patients ([1]; 5 mg SC, treatment period): 16.5% | Arthralgia: number of patients ([1]; 5 mg SC, treatment period): 165 | Back pain: % of patients ([1]; 5 mg SC, treatment period): 5.5% | Back pain: number of patients ([1]; 5 mg SC, treatment period): 55 | Discontinued from study (adverse event): % of patients ([1]; 5 mg SC, treatment period): 2.0% | Discontinued from study (adverse event): number of patients ([1]; 5 mg SC, treatment period): 20 | Discontinued study drug and continued study (adverse event): % of patients ([1]; 5 mg SC, treatment period): 8.8% | Discontinued study drug and continued study (adverse event): number of patients ([1]; 5 mg SC, treatment period): 88 | Fall: % of patients ([1]; 5 mg SC, treatment period): 5.3% | Fall: number of patients ([1]; 5 mg SC, treatment period): 53 | Headache: % of patients ([1]; 5 mg SC, treatment period): 4.5% | Headache: number of patients ([1]; 5 mg SC, treatment period): 45 | Joint swelling: % of patients ([1]; 5 mg SC, treatment period): 4.8% | Joint swelling: number of patients ([1]; 5 mg SC, treatment period): 48 | Musculoskeletal pain: % of patients ([1]; 5 mg SC, treatment period): 4.1% | Musculoskeletal pain: number of patients ([1]; 5 mg SC, treatment period): 41 | Nasopharyngitis: % of patients ([1]; 5 mg SC, treatment period): 6.7% | Nasopharyngitis: number of patients ([1]; 5 mg SC, treatment period): 67 | Osteoarthritis: % of patients ([1]; 5 mg SC, treatment period): 5.4% | Osteoarthritis: number of patients ([1]; 5 mg SC, treatment period): 54 | Pain in extremity: % of patients ([1]; 5 mg SC, treatment period): 3.7% | Pain in extremity: number of patients ([1]; 5 mg SC, treatment period): 37 | Paraesthesia: % of patients ([1]; 5 mg SC, treatment period): 3.0% | Paraesthesia: number of patients ([1]; 5 mg SC, treatment period): 30 | Peripheral edema: % of patients ([1]; 5 mg SC, treatment period): 4.3% | Peripheral edema: number of patients ([1]; 5 mg SC, treatment period): 43 | Rapidly progressive osteoarthritis (adverse event): % of patients ([1]; 5 mg SC, treatment period): 4.1% | Rapidly progressive osteoarthritis (adverse event): number of patients ([1]; 5 mg SC, treatment period): 41 | Serious AE Acute kidney injury: % ([1]; 5 mg SC, treatment period): 0.2% | Serious AE Acute kidney injury: n ([1]; 5 mg SC, treatment period): 2 | Serious AE Acute myocardial infarction: % ([1]; 5 mg SC, treatment period): 0.1% | Serious AE Acute myocardial infarction: n ([1]; 5 mg SC, treatment period): 1 | Serious AE Arthralgia: % ([1]; 5 mg SC, treatment period): 0.9% | Serious AE Arthralgia: n ([1]; 5 mg SC, treatment period): 9 | Serious AE Cellulitis: % ([1]; 5 mg SC, treatment period): 0.2% | Serious AE Cellulitis: n ([1]; 5 mg SC, treatment period): 2 | Serious AE Cerebrovascular accident: n ([1]; 5 mg SC, treatment period): 0 | Serious AE Gastrointestinal hemorrhage: n ([1]; 5 mg SC, treatment period): 0 | Serious AE Intervetebral disc protrusion: % ([1]; 5 mg SC, treatment period): 0.2% | Serious AE Intervetebral disc protrusion: n ([1]; 5 mg SC, treatment period): 2 | Serious AE Meniscus injury: % ([1]; 5 mg SC, treatment period): 0.3% | Serious AE Meniscus injury: n ([1]; 5 mg SC, treatment period): 3 | Serious AE Osteoarthritis: % ([1]; 5 mg SC, treatment period): 1.7% | Serious AE Osteoarthritis: n ([1]; 5 mg SC, treatment period): 17 | Serious AE Osteonecrosis: % ([1]; 5 mg SC, treatment period): 0.2% | Serious AE Osteonecrosis: n ([1]; 5 mg SC, treatment period): 2 | Serious AE Pneumonia: % ([1]; 5 mg SC, treatment period): 0.2% | Serious AE Pneumonia: n ([1]; 5 mg SC, treatment period): 2 | Serious AE RPOA: % ([1]; 5 mg SC, treatment period): 1.1% | Serious AE RPOA: n ([1]; 5 mg SC, treatment period): 11 | Serious AE Subchondral insufficiency fracture: % ([1]; 5 mg SC, treatment period): 0.4% | Serious AE Subchondral insufficiency fracture: n ([1]; 5 mg SC, treatment period): 4 | Serious Adverse Event (any event): % of patients ([1]; 5 mg SC, treatment period): 8.0% | Serious Adverse Event (any event): number of patients ([1]; 5 mg SC, treatment period): 80 | Severe Adverse Event: % of patients ([1]; 5 mg SC, treatment period): 6.8% | Severe Adverse Event: number of patients ([1]; 5 mg SC, treatment period): 68 | Upper respiratory tract infection: number of patients ([1]; 5 mg SC, treatment period): 45 | blocking of the activity of NGF [2]: blocks the activity of NGF effectively
